Data as given in patent US20240101959A1, “USE OF IL-2R-BETA-GAMMA AGONIST PEPTIDES IN CELL MANUFACTURING” (MEDIKINE, INC., priority 2022, published 2024).
Like-named read-outs stand apart in the source and are kept apart here. Non-standard residues stand in square brackets, D forms with d. No end group written: not given here. Alb = not defined here

T1: hu-IL-2Rγc subunit (human, UniProt P31785 23-262, limits assumed)
T1 sequence (looked up): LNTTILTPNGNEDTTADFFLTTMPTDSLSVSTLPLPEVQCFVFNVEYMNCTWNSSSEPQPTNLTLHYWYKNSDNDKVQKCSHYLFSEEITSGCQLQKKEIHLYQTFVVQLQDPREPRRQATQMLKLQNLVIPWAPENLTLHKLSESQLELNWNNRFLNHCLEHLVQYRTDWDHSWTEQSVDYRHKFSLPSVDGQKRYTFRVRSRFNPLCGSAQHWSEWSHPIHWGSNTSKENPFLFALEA

T2: hu-IL-2Rγc subunit (human), P31785
T2 chain: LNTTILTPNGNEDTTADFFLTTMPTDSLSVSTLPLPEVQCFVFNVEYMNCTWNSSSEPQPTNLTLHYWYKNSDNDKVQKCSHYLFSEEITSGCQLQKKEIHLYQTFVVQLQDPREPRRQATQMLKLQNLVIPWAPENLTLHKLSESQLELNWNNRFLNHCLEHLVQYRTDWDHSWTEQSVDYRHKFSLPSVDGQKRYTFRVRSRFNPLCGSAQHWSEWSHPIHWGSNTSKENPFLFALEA


Legend:
hu-IL-2Rγc subunit [1] = target: T1, hu-IL-2Rγc subunit
hu-IL-2Rγc subunit [2] = target: T1, hu-IL-2Rγc subunit; assay: phage ELISA competition assay
[3] = target: T2, hu-IL-2Rγc subunit (human), P31785
[4] = target: T2, hu-IL-2Rγc subunit (human), P31785; assay: phage ELISA competition assay

Row | IC50 (hu-IL-2Rγc subunit [1]) [µM] | IC50 (hu-IL-2Rγc subunit [2]) [µM] | IC50 [3] [µM] | IC50 [4] [µM] | Binder
1 | < 100 | – | – | – | GGVVCQDWEGVSLCWQGG [SEQ ID NO 746]
2 | < 100 | – | – | – | GGVVCQDWEGVGLCWQGG [SEQ ID NO 747]
3 | < 100 | < 10 | – | – | FAHHGVVECQEWYGVELCWQ [SEQ ID NO 670]
4 | < 100 | – | – | – | GGVGIECEEWAGVELCWLGG [SEQ ID NO 739]
5 | – | – | < 100 | < 10 | EQQVVCQEWNGVELCWIEAG (modifications not checked) [SEQ ID NO 701]
6 | < 100 | < 10 | – | – | ILCQEFEGVELCWLEESLAE [SEQ ID NO 675]
7 | < 100 | < 10 | – | – | KTTVACQDWGGVELCWVERV [SEQ ID NO 689]
8 | < 100 | < 10 | – | – | LALRKEVVCQEYYGVELCWI [SEQ ID NO 641]
9 | < 100 | – | – | – | GGVVCQDWEGVXLCWQGG (not fully specified; Abu at residue 12, as printed in the table) [SEQ ID NO 743]
10 | – | – | < 100 | < 10 | TAEVVCQEWDGVELCWIEVL (modifications not checked) [SEQ ID NO 703]
11 | < 100 | – | – | – | GGVVCQDWEGVELCWQGPPA [SEQ ID NO 749]
12 | < 100 | < 10 | – | – | VVCQEWEGVELCWYAGECMQ [SEQ ID NO 674]
13 | – | – | < 100 | < 10 | TDEVSCQEWEGVELCWIERQ (modifications not checked) [SEQ ID NO 694]
14 | < 100 | < 10 | – | – | YSRELYVQCEDWEGVELCWI [SEQ ID NO 651]
15 | < 100 | < 10 | – | – | IECDTSYGVYICWQ [SEQ ID NO 637]
16 | < 100 | < 10 | – | – | WSKKAEVVCEEWGGVEFCWI [SEQ ID NO 672]
17 | – | – | < 100 | < 10 | SVEVVCEEWHGVELCWPVFI (modifications not checked) [SEQ ID NO 709]
18 | < 100 | < 10 | – | – | RLLNSVVECLDWEGVELCWQ [SEQ ID NO 659]
19 | – | – | < 100 | < 10 | AVCQDWYGVELCWCMQDILD (modifications not checked) [SEQ ID NO 705]

Row | IC50 (hu-IL-2Rγc subunit [1]) [µM] | IC50 (hu-IL-2Rγc subunit [2]) [µM] | IC50 [3] [µM] | IC50 [4] [µM] | Binder
20 | < 100 | < 10 | – | – | AHSRQEVVCEEWYGVELCWI [SEQ ID NO 649]
21 | – | – | < 100 | < 10 | RVQVECEDWNGVELCWPVRV (modifications not checked) [SEQ ID NO 687]
22 | – | – | < 100 | < 10 | QLGVECQNWRGVELCWVSEI (modifications not checked) [SEQ ID NO 702]
23 | < 100 | < 10 | – | – | VVCEVFQGVELCWCENEEFT [SEQ ID NO 693]
24 | – | – | < 100 | < 10 | IVCEEYNGVELCWVETSVKP (modifications not checked) [SEQ ID NO 700]
25 | – | – | < 100 | < 10 | RLGVECQEWEGVDLCWISAF (modifications not checked) [SEQ ID NO 691]
26 | < 100 | < 10 | – | – | RSNQTVVECQDWEGVELCWQ [SEQ ID NO 673]
27 | < 100 | < 10 | – | – | MVNREVVVCEDWYGVELCWQ [SEQ ID NO 643]
28 | < 100 | – | – | – | GGRTGVECQDWHGVELCWPVWEGG [SEQ ID NO 742]
29 | < 100 | < 10 | – | – | KLTVECQDWDGVELCWVGVE [SEQ ID NO 684]
30 | < 100 | – | – | – | GGVVCQDWEGVELCWQPPA (not fully specified (bridges); cysteine pairing not given here) [SEQ ID NO 748]
31 | < 100 | – | – | – | GGRTEVECEDWEGVELCWLGG [SEQ ID NO 741]
32 | < 100 | < 10 | – | – | VVCQEWEGVELCWVEPPLLP [SEQ ID NO 686]
33 | – | < 10 | – | – | IECEEWAGVELCWL [SEQ ID NO 716]
34 | – | – | < 100 | < 10 | VECEEWGGVELCWLADEVMW (modifications not checked) [SEQ ID NO 706]
35 | < 100 | – | – | – | GGVMCERWQGVELCWLGG [SEQ ID NO 738]
36 | < 100 | < 10 | – | – | RTGVECQDWHGVELCWPVWE [SEQ ID NO 711]
37 | – | – | < 100 | < 10 | VVCQEWEGVELCWQTGPGAHA (modifications not checked) [SEQ ID NO 699]
38 | – | – | < 100 | < 10 | DRQVVCEEWDGVELCWIEES (modifications not checked) [SEQ ID NO 688]

Row | IC50 (hu-IL-2Rγc subunit [1]) [µM] | IC50 (hu-IL-2Rγc subunit [2]) [µM] | IC50 [3] [µM] | IC50 [4] [µM] | Binder
39 | – | – | < 100 | < 10 | SPSIVCEEWAGVELCWVDYS (modifications not checked) [SEQ ID NO 704]
40 | < 100 | < 10 | – | – | DVECVDWGGVELCWH [SEQ ID NO 646]
41 | < 100 | < 10 | – | – | KPVVVCEEWQGVELCWLEIQ [SEQ ID NO 692]
42 | – | – | < 100 | < 10 | GPEVVCEEFNRVELCWVEYN (modifications not checked) [SEQ ID NO 696]
43 | < 100 | < 10 | – | – | VTCQEYEGVELCWTVGCAYS [SEQ ID NO 698]
44 | – | – | < 100 | < 10 | KYIVECQEWGGVELCWPEMV (modifications not checked) [SEQ ID NO 697]
45 | < 100 | < 10 | – | – | RSDDEVVVCQEWEGVELCWQ [SEQ ID NO 666]
46 | < 100 | – | – | – | GGDCSMWEGVELCWGG [SEQ ID NO 737]
47 | – | – | < 100 | < 10 | RTEVECEDWEGVELCWL (modifications not checked) [SEQ ID NO 713]
48 | < 100 | < 10 | – | – | VVCQEWEGVELCWC [SEQ ID NO 661]
49 | – | – | < 100 | < 10 | RWAVSCQDWQGIELCWPEWD (modifications not checked) [SEQ ID NO 710]
50 | < 100 | – | – | – | GGTWNMSELECQDWNGVEICWHGG [SEQ ID NO 740]
51 | – | – | < 100 | < 10 | PVEVRCQEWEGVELCWVVGI (modifications not checked) [SEQ ID NO 695]
52 | – | – | < 100 | < 10 | HSTVICQDWDGVELCWIEND (modifications not checked) [SEQ ID NO 707]
53 | < 100 | < 10 | – | – | EGSTTTIECEEWAGVELCWL [SEQ ID NO 664]
54 | – | – | < 100 | < 10 | RPEVVCQEWEGVELCWISPL (modifications not checked) [SEQ ID NO 690]
55 | < 100 | – | – | – | GGVVCQDWEGV[Alb]LCWQGG (not fully specified; printed as G G V V C Q D W E G V Alb L C W Q G G; cysteine pairing not given here; reading uncertain) [SEQ ID NO 744]
56 | < 100 | < 10 | – | – | KKIVVCQDWGGVELCWTEDD [SEQ ID NO 708]
57 | < 100 | < 10 | – | – | IECEEWAGVELCWL [SEQ ID NO 667]
